System: cultured PBMCs of the allergic donors
Assay: ELISPOT of IL-5 or IFNg production by cultured PBMCs of TG allergic donors in response to peptide
Assay type: cell-based, human
Details: for NTGA's containing at least one T cell epitope, Th+ (Col 2): NTGA number given = criterion met, TG allergic donors n=20; for No of PG+ & th+ peptides per NTGA / No of PP & Th+ peptides per NTGA: Table 6; for No of PG+ & th+ peptides per NTGA: PG+ peptides recognized by T cells of grass allergic donors (n=20); for No of PP & Th+ peptides per NTGA: PP peptides recognized by T cells of grass allergic donors (n=20); for # Th+: Table 7, peptides per NTGA recognized by T cells of grass allergic donors (n=20)
Description: Table 1 indicates for each of the 397 PG+ peptides in which non-grass pollen species a matching peptide with either less than 3, less than 2 or zero mismatches are found. The number of TG grass allergic donors (n=20) with an in vitro T cell response to the TG peptide sequence is also shown.
A set of 93 proteins from Timothy grass (TG) pollen and the assembly of 822 peptides (15 mers) predicted to promiscuously bind HLA class II molecules shown in Table 9 and the immune reactivity in allergic donors have been reported in PCT application WO 2013/119863. […] Immune reactivity was determined by the production of IL-5 or IFNg from cultured PBMCs of the allergic donors in response to stimulation with a peptide and IL-5 and IFNg were measured by ELISPOT as described in Oseroff C et al, 2010.
In short, T cell immune reactivity was determined using PBMCs isolated from study participants and stored in liquid nitrogen until further use. For experimental testing, PBMCs were thawed and expanded in vitro with TG pollen extract (50 μg/mL) or the peptide pool ([…]). The TG extract and peptide pools had each been previously titrated to determine optimal stimulation concentrations.
Cytokine production by cultured PBMCs in response to antigen stimulation was measured by ELISPOT. Cells (1×10^5 cells/well) were plated and incubated with peptide (10 μg/mL), the peptide pool (5 μg/mL), or the TG extract (50 μg/mL). Phytohaemagglutinin (10 μg/mL) and medium alone were used as positive and negative controls, respectively. Samples were considered to produce a cytokine if 100 spot-forming cells (SFCs)/10^6 PBMCs were detected, with P .05 and a stimulation index of 2 or more. Criteria for individual peptides were the same except that a minimum of 20 SFCs were required for a sample to be counted as positive.
Table 3 lists the 397 PG+ peptides and indicates for each non-grass pollen species whether a matching peptide with either less than 3, less than 2 or zero mismatches could be detected. The immune reactivity of the TG peptide was assessed as the number of TG grass allergic donors (n=20) having in vitro T cell response against the TG peptide.

Molecule | NTGA's containing at least one T cell epitope, Th+ (Col 2) | No of PG+ & th+ peptides per NTGA | No of PP & Th+ peptides per NTGA | # Th+
NTGA 51: Phl p wild type sequence, Table 2 (protein, Phleum Pratense) MSPAEPTREESVYMAKLAEQAERYEEMVEFMERVAKATGGAGPGEELSVEERNLLSVAYKNVIGARRASWRIISSIEQKEEGRGNDAHATTIRSYRSKIEAELAKICDGILALLDSHLVPSAGAAESKVFYLKMKGDYHRYLAEFKSGAERKEAAESTMNSYKAAQDIALADLAPTHPIRLGLALNFSVFYYEILNSPDRACNLAKQAFDEAISELDSLGEESYKDSTLIMQLLRDNLTLWTSDTNEDGGDEIKEAPAPKESGD | 51 | 2 | 1 | 0
NTGA 76: Phl p wild type sequence, Table 2 (protein, Phleum Pratense) MASHIVGYPRMGPKRELKFALESFWDGKSSAEDLEKVATDLRASIWKQMSEAGIKYIPSNTFSYYDQVLDTTAMLGAVPDRYSWTGGEIGHSTYFSMARGNATVPAMEMTKWFDTNYHFIVPELGPETKFSYASHKAVSEYKEAKALGVDTVPVLVGPVSYLLLSKAAKGVEKSFSLLSLLGGILPIYKEVVAELKAAGASWIQFDEPTLVKDLAAHELAAFSSAYAELESSLSGLNVLIETYFADVPAESYKTLTSLSGVTAYGFDLVRGTKTLDLLKSVGIPSGKYLFAGVVDGRNIWADDLAASLSTLESLEAIVGKDKLVVSTSCSLMHTAVDLVNETKLDSEIKSWLAFAAQKVVEVNALGKALVGLKDEAYFAANAAAQASRRSSPRVNNEEVQKAAAALKGSDHRRATTVSARLDAQQKKLNLPVLPTTTIGSFPQTMDLRRVRREYKAKKISEEAYVSAIKEEISKVVKIQEELDIDVLVHGEPERNDMVEYFGEQLSGFAFTANGWVQSYGSRCVKPPIIYGDVSRPNPMTVFWSKMAQSMTPRPMKGMLTGPV | 76 | 5 | 0 | 0
NTGA 62: Phl p wild type sequence, Table 2 (protein, Phleum Pratense) MRRLSLILLAAAALLAAAVSAEPGPAPKLSPDFYSQTCPRAERIIAEVVQSKQMANPTTAAGVLRVFFHDCFVSGCDASVLIAPTHYAKSEKDADINHSLPGDAFDAVVRSKLALELECPGVVSCADILAIASRVLVTMTGGPRYPVPLGRKDSLSSNPAAPDVELPHSNFTVGRIIELFTAKGFTVQEMVALSGAHTLGFSHCQEFASRIYNYRDKGGKPAPFDPSMNPTYAKGLQAACQDYQKDPTIAAFNDIMTPGKFDNMYYVNIERGLGLLSTDEDMWSDMRTKPFVQRYAANNTDFFEDFAKAIEKLSMYGVKTGADGEIRRRCDAFNSGPNIQ | 62 | 1 | 0 | 2
NTGA 65: Phl p wild type sequence, Table 2 (protein, Phleum Pratense) AMAVDLTPRQPTKAYGGDGGAYYEWSPAELPMLGVASIGAAKLSLAAGGMSLPSYSDSAKVAYVLQGKGTCGIVLPEATKEKVVAIKEGDALALPFGVVTWWHNTPESSTELVVLFLGDTSKGHTPGKFTNFQLTGATGIFTGFSTEFVARAWDLDQDAAASLVSTQPGTGIVKLAPGHKMPVARAEDRKGMALNCLEAKLDVDIPNGGRVVVLNTVNLPLVKEVGLGADLVRIDAHSMCSPGFSCDSAYQVTYIVRGSGRVQVVGPDGKRVLETRIEGGSLFIVPRFHVVSKIADASGMEWFSIITTPNPIFSHLAGKTSVWKAISPEVLEAAFNTTPEMEKLFRSKRLDSEIFFAPS | 65 | 2 | 0 | 0
NTGA 32: Phl p wild type sequence, Table 2 (protein, Phleum Pratense) MAPIKIGINGFGRIGRLVARVALQCPDVELVAVNDPFITTDYMTYMFKYDTVHGQWKHHDVKVKDAKTLLFGEKEVAVFGCRNPEEIPWGAAGADYVVESTGVFTDKDKAAAHIKGGAKKVIISAPSKDAPMFVCGVNEKEYTSDITIVSNASCTTNCLAPLAKVINDRFGIVEGLMTTVHAMTATQKTVDGPSSKDWRGGRAASFNIIPSSTGAAKAVGKVLPVLNGKLTGMAFRVPTVDVSVVDLTVRLEKAATYEQIKAAIKEESEGNLKGILGYVDEDLVSTDFQGDSRSSIFDAKAGIALNDNFVKLVSWYDNEWGYSTRVVDLIRHIHATK | 32 | 4 | 4 | 0
NTGA 34: Phl p wild type sequence, Table 2 (protein, Phleum Pratense) MSFSWICACVRAAAVAWEAGKPLSIEEVEVAPPQAMEVRVKILFTALCHTDVYFWEAKGQTPVFPRIFGHEAGGIVESVGEGVTDVAPGDHVLPVFTGECKECRHCKSAESNMCDLLRINTDRGVMISDGKSRFSIDGKPIFHFVGTSTFSEYTVMHVGCVAKINPEAPLDKVCVLSCGISTGLGASINVAKPPKGSTVAIFGLGAVGLAAAEGARIAGASRIIGIDLNANRFEEARKFGCTEFVNPKDHTKPVQEVLAEMTDGGVDRSVECTGNINAMIQAFECVHDGWGVAVLVGVPHKDAEFKTHPMNFLNERTLKGTFFGNFKPRTDLPNVVEMYMKKELEVEKFITHSVTFSEINKAFDLMAKGEGIRCIIRMEH | 34 | 3 | 1 | 0
NTGA 56: Phl p wild type sequence, Table 2 (protein, Phleum Pratense) MARLLFPLPIAAAAVSASSIHLAASRFRLPVVSAARRGTLFGGRVAVRAPARLATRGVSAGAEAGGSAARAGTVIGPEEALEWVKNDRRRLLHVVYRVGDLDKTIKFYTECLGMKLLRKRDIPEERYTNAFLGYGPEDSHFVVELTYNYGVESYDIGSGFGHFGIAVEDVEKTVELIKAKGGTVTREPGPVKGGKSVIAFIEDPDGYKFELIERGPTPEPLCQVMLRVGDLDRAIKFYEKAFGMELLRRKDNPQYKYTIAMMGYGPEDKNAVLELTYNYGVKEYDKGNAYAQIAIGTDDVYKTAEVVRQNGGQITREPGPLPGISTKITACTDPDGWKSVFVDNLDFLKELEE | 56 | 1 | 1 | 0

Source: US20160287696A1, “PAN POLLEN IMMUNOGENS AND METHODS AND USES FOR IMMUNE RESPONSE MODULATION” (LA JOLLA INSTITUTE FOR ALLERGY AND IMMUNOLOGY, priority 2013, published 2016)
